B1: PLD5 (parent)
chain: VTYMNMTAYNKGRLQSSFWIVDKQ
B2: MYBL2 (parent)
chain: VKKSCWTEEEDRIICEAHKVLGNR

Variants of: B1
Assay: protein stability index of a GFP-peptide fusion (GPS, HEK-293T) (PSI 1-6); higher = more stable
Conditions: c terminus: a fixed tail appended
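Further: lentivirally expressed fusions sorted by FACS into six bins by GFP to DsRed ratio, PSI derived from sequencing read proportions per bin multiplied by bin number.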

Protein stability index, by site and new letter:
R13: E 1.73; K 1.27; Y 2.93; G 1.6; H 3.22; M 2.14; L 1.51; I 2.15; W 4.66; T 1.48; N 1.52; Q 2.13; D 3.06; A 3.25; S 1.59
S16: H 2.01; A 3.62; Y 4.23; W 3.41; Q 2.42; R 1.28; K 1.63; P 1.1; D 2.08; I 2.81; N 1.21; F 3.61; T 3.01
Y9: N 1.78; T 2.06; F 3.22; M 2.17; E 2.11; S 1.83; C 2.55; D 2.58; V 1.81; G 2.11; A 1.62; W 3.74; L 1.92; H 1.75; I 2.59; P 1.1; K 2.02; R 1.58; Q 1.33
M6: G 2.46; I 2.91; K 1.58; P 1.6; E 1.65; V 2.89; S 1.87; C 2.61; A 1.18; Y 2.08; Q 2.1; H 1.93; N 1.76; D 2.13; F 2.16; T 1.58; L 3.25; R 2.06
N10: L 1.28; R 2.25; M 3.39; T 2.49; E 3.78; A 2.67; Q 2.97; P 2; Y 2.25; S 1.95; H 1.97; W 3.08; K 1.89; D 2.75; C 2.87
M4: L 1.68; Y 2.31; G 2.13; H 1.89; Q 2.18; F 3.33; K 2.05; C 3.5; D 1.89; R 1.34; N 1.5; E 2.3; T 2.44; V 3.21; S 3.45; A 1.98; P 2.09
I20: H 2.41; K 2.27; S 2.09; W 2.26; P 1.7; L 1.22; T 1.4; R 1.51; E 2.23; D 1.33; N 1.91; A 1.41; C 1.76; M 3.68; Y 2.98; Q 1.97; G 1.25
Y3: K 1.62; F 2.88; M 2.14; N 3.08; G 1.59; Q 1.76; V 2.33; T 1.66; R 2.4; E 3.13; W 3.91; S 2.51; P 2.06; H 1.67
W19: A 1.8; L 2; V 1.65; Q 2.46; Y 1.91; C 1.49; R 1.91; D 2.45; M 1.62; T 2.18; P 1.98; E 2.04; F 2.04; S 2.29; H 2.21; K 1.84; G 2.01; I 1.76
Q15: P 2.48; D 1.63; F 1.61; R 3.58; K 1.03; V 4.47; G 2.44; A 3.27; I 2.03; T 4.18; N 3.18; M 2.46; L 2.49; E 1.94; H 2.42; W 2.58
A8: D 1.1; N 2.29; C 2.68; R 1.9; Y 2.39; L 2.22; M 2.46; V 3.16; S 2.24; K 1.95; Q 1.5; T 2.02; G 2.11; I 3.64; P 3.56; H 1.93; E 1.46; F 2.41
K11: W 1.68; I 3.18; Q 1.84; L 3.44; Y 3.58; T 2.14; R 1.96; D 1.96; G 1.65; P 2.17; S 2.96; H 1.95; E 3.5; A 1.36; N 3.07
D22: K 2.53; N 3.19; E 1.21; R 3.44; T 3.51; P 2.11; M 3.38; H 3.52; C 3.67
L14: K 2.29; E 1.62; F 1.93; D 2.06; P 2.86; W 2.63; Y 2.04; M 2.88; A 2.63; T 2.14; N 1.29; Q 1.25; S 2.72; V 1.84; R 2.06
S17: C 2.28; M 4.26; T 1.43; L 1.12; D 2.15; P 2.33; A 2.28; G 1.73; R 3.71; N 1.49; Y 3.31; H 1.93; K 2.12
K23: P 2.67; D 2.85; C 1.95; N 3.33; E 3.18; A 3.81; H 2.49; Q 1.74; M 3.22; Y 2.52; L 4.23; R 2.17; T 3.52; I 2.33
T7: L 2.3; Q 2.36; N 2.46; A 3.57; H 2.05; E 1.02; D 1.87; V 2.61; S 2.21; F 1.89; P 1.22
V21: M 1.52; A 2.08; D 1.96; I 2.63; P 1.85; L 2.21; T 2.43; R 1.7; Q 1.89; N 2.82; C 1.38; G 1.53; E 1.5; Y 1.81; K 2.31; F 1.43; H 1.28; S 1.55
Q24: E 1.48; T 2.79; K 1.24; N 2.11; A 2.28; D 1.85; S 2.22; M 3.08; P 2.67; I 2.52; H 2.19; R 2.46
N5: D 1.45; L 3; T 2.08; E 2.76; W 3.13; F 2.69; A 3.48; M 3.53; R 3.38; P 1.49; I 2.99
G12: Y 2.49; A 1.89; E 1.8; V 1.91; T 1.8; Q 1.37; D 3.02; S 2.38; H 1.15; R 1.58; L 4.29; K 2.31; M 2.18; C 1.53; F 3.77
F18: Q 1.8; A 2.89; M 2.26; C 2.26; K 1.8; V 2.57; P 2.02; Y 1.8; E 2.2; T 1.74; L 2.32; G 2.31; D 2.07; H 1.48; S 2.07; N 1.67; R 1.82; W 1.24

Variants of: B2
Assay: as above
Conditions: c terminus: a fixed tail appended

Protein stability index: each site, then its substitutions
V1: C 3.04; D 3.35; A 3.19
